# Measurements from US20050064384A1 (published 2005).
# T1: FLAG-tagged GCK (human, UniProt Q12851 1-820)
# T1 sequence: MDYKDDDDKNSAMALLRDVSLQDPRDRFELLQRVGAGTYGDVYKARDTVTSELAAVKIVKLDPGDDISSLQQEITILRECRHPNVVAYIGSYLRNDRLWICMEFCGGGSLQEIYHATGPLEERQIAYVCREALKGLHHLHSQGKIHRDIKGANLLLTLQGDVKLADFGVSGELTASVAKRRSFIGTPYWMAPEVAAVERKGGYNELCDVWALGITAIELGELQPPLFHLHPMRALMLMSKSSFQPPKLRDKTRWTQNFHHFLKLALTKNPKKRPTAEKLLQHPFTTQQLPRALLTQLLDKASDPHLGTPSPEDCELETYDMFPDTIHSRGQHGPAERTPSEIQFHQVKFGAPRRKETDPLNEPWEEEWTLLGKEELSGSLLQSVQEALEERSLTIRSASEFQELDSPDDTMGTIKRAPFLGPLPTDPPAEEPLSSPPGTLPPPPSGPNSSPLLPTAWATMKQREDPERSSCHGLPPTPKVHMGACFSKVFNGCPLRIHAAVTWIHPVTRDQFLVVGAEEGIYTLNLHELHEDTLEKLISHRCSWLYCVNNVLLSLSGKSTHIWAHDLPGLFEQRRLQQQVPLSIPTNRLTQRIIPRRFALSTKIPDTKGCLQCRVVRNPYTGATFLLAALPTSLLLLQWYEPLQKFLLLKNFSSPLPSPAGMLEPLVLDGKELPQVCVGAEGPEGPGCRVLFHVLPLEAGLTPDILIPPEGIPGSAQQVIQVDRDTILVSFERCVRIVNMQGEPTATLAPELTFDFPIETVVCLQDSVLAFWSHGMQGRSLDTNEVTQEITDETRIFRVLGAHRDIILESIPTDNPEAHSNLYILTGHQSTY
# T2: FLAG-tagged wild type (wt) MST1 (mouse, UniProt Q9JI11 1-487)
# T2 construct: also called FLAG-MST1; full-length MST1
# T2 sequence: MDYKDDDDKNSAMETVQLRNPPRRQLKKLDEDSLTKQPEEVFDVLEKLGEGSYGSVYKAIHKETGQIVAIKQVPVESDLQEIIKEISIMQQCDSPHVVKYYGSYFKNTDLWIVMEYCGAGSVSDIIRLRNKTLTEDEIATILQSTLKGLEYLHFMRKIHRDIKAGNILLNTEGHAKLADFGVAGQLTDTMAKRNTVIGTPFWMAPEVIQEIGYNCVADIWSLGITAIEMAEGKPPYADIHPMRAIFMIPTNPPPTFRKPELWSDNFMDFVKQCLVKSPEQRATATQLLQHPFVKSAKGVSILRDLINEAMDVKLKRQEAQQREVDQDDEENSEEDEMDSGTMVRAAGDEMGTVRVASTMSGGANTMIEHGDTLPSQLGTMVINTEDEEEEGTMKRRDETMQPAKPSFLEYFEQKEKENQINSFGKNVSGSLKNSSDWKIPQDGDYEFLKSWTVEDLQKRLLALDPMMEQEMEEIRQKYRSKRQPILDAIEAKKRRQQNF
# B1: HA-NORE1 (other)
# chain: MYPYDVPDYAMASPAIGQRPYPLLLDPEPPRYLQSLGGTEPPPPARPRRCIPTALIPAAGASEDRGGRRSGRRDPEPTPRDCRHARPVRPGLQPRLRLRPGSHRPRDVRSIFEQPQDPRVLAERGEGHRFVELALRGGPGWCDLCGREVLRQALRCANCKFTCHSECRSLIQLDCRQKGGPALDRRSPGSTLTPTLNQNVCKAVEETQHPPTIQEIKQKIDSYNSREKHCLGMKLSEDGTYTGFIKVHLKLRRPVTVPAGSGPSPSMDAIKEVNPAATTDKRTSFYLPLDAIKQLHISSTTTVSEVIQGLLKKFMVVDNPQKFALFKRIHKDGQVLFQKLSIADYPLYLRLLAGPDTDVLSFVLKENETGEVEWDAFSIPELQNFLTILEKEEQDKIHQLQKKYNKFRQKLEEALRESQGKPG
# notes: also called recombinant hemagglutinin (HA)-tagged NORE fusion polypeptide
# B2: GST-NORE (7-413) (other, not shown: a dimerising Fc or GST)
# chain: GQRPYPLLLDPEPPRYLQSLGGTEPPPPARPRRCIPTALIPAAGASEDRGGRRSGRRDPEPTPRDCRHARPVRPGLQPRLRLRPGSHRPRDVRSIFEQPQDPRVLAERGEGHRFVELALRGGPGWCDLCGREVLRQALRCANCKFTCHSECRSLIQLDCRQKGGPALDRRSPGSTLTPTLNQNVCKAVEETQHPPTIQEIKQKIDSYNSREKHCLGMKLSEDGTYTGFIKVHLKLRRPVTVPAGSGPSPSMDAIKEVNPAATTDKRTSFYLPLDAIKQLHISSTTTVSEVIQGLLKKFMVVDNPQKFALFKRIHKDGQVLFQKLSIADYPLYLRLLAGPDTDVLSFVLKENETGEVEWDAFSIPELQNFLTILEKEEQDKIHQLQKKYNKFRQKLEEALRESQGKPG
# Legend:
# [1] = molecular target: T1, FLAG-tagged GCK; experiment: anti-FLAG immunoprecipitation from co-transfected HEK293 cells, anti-HA immunoblot
# Protocol: (§2) FLAG-tagged proteins were immunopreciptated with anti-FLAG M2-agarose, eluted with the excess of the FLAG peptide. The eluates were analyzed by immunoblotting after SDS-PAGE. Upper panel: proteins immunoprecipitated (IP) by FLAG-agarose probed with anti-HA antibody 12CA5 (α-HA). Middle panel: cell extracts probed with anti-FLAG antibody (α-FLAG).
# [2] = molecular target: T3, FLAG-tagged SOK (human, UniProt O00506 1-426); experiment: as above
# T3 construct: also called SOK1
# Protocol: as §2
# [3] = molecular target: T2, FLAG-tagged wild type (wt) MST1; experiment: anti-FLAG immunoprecipitation from co-transfected HEK293 cells, FLAG peptide elution, anti-HA immunoblot
# Protocol: as §2
# [4] = molecular target: T4, FLAG-tagged Ha-RasG12V (human, UniProt P01112 1-189); experiment: in vitro binding of FLAG-Ras from HEK293 extracts to GST fusion protein immobilized on GSH-agarose, anti-FLAG immunoblot
# T4 construct: also called FLAG-V12RAS; FLAG Ha-RasG12V
# From the text: (§1) Aliquots of extracts from these cells (as shown in the center panel) were adsorbed to the immobilized GST proteins; the beads were washed extensively and eluted with SDS.
# [5] = molecular target: T5, FLAG-tagged Ki-RasG12V (Meleagris gallopavo (Wild turkey), UniProt P79800 1-188); experiment: as above
# T5 construct: also called FLAG Ki-RasG12V
# From the text: as §1
# T3 sequence (O00506 other isoform, or with tags, fused parts or gaps limits assumed): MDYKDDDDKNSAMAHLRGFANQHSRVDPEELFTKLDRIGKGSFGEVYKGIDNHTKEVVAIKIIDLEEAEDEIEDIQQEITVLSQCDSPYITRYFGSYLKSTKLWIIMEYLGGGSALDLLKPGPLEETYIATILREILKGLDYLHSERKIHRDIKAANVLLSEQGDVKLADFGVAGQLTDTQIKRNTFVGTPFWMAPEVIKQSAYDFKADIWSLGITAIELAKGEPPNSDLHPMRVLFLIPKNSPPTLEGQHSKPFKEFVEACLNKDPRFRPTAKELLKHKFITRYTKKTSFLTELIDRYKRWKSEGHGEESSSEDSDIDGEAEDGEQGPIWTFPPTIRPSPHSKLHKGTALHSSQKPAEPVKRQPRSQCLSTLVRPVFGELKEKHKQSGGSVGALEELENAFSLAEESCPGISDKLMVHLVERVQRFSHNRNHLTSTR
Binder,binding result [1],binding result [2],binding result [3],binding result [4],binding result [5]
B1,no binding,no binding,binds,,
B2,,,,binds,binds
